What was measured:
[1] = target: 3xFLAG-HCMV-UL48, N-terminal catalytic domain of the HCMV large tegument protein (human cytomegalovirus (HCMV)) (UniProt P16785)
[2] = target: 3xFLAG-KSHV-ORF64, N-terminal catalytic domain of the KSHV large tegument protein (Kaposi Sarcoma herpesvirus (KSHV)) (UniProt Q2HR64)
[3] = target: 3xFLAG-BPLF1 (amino acid residues 1-235), N-terminal catalytic domain of the EBV large tegument protein (Epstein-Barr virus (EBV)) (UniProt P03186)
Chain of UniProt P03186 (P03186 1-235): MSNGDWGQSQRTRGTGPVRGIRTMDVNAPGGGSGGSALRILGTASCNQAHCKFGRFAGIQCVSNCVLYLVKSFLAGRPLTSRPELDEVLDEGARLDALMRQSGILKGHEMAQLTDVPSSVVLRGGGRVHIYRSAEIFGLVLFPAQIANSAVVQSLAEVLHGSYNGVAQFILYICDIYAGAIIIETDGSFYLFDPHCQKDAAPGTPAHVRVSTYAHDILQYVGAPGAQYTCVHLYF

Chain of UniProt Q2HR64 (Q2HR64 1-300): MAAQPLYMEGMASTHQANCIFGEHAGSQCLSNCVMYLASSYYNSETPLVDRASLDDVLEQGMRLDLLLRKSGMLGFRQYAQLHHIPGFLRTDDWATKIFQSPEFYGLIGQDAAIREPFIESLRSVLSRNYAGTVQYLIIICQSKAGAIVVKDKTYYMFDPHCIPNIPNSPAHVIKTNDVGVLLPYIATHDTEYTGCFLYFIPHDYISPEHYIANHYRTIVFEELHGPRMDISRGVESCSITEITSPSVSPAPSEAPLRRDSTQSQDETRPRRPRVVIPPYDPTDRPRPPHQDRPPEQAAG
Chain of UniProt P16785 (P16785 1-300): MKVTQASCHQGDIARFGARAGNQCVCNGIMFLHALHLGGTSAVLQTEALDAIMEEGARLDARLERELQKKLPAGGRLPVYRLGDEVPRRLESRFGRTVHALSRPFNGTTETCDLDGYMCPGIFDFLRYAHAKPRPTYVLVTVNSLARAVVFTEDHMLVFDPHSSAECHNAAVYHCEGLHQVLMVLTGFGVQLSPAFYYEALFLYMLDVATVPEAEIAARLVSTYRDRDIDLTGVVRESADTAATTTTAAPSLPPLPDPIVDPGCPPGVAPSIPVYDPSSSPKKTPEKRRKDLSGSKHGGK

## 14-3-3 molecular scaffold (endogenous, detected with a pan 14-3-3 antibody) (from UniProt P63104 1-245) (natural protein)
[1]
  mono-ubiquitination of co-transfected HA-TRIM25 (western blot, densitometry), percent mono-ubiquitinated TRIM25: > 70%
[2]
  mono-ubiquitination of co-transfected HA-TRIM25 (western blot, densitometry), percent mono-ubiquitinated TRIM25: > 70%
[3]
  inhibition of IRF3 nuclear translocation in RIG-I-2CARD positive HeLa cells: > 50%
